The target in experiment [1] is FLAG-tag marker (Alpha Diagnostic Cat # FLAG15-R). In words: ELISA, 25% human serum in KRB, pH 6.0.
Experiment [2] shares this target. Put plainly: ELISA, 25% human serum in KRB, pH 7.4.
For experiment [3], the target named is Myc-tag marker (Alpha Diagnostic Cat # Myc15-R). In words: ELISA, 25% human serum in KRB, pH 6.0.
The target in experiment [4] is Multifusion-tagged marker (Alpha Diagnostic Cat # MFPM20-C). In words: ELISA, 25% human serum in KRB, pH 7.4.
The target in experiment [5] is Myc-tag marker (Alpha Diagnostic Cat # Myc15-R). Put plainly: ELISA, 25% human serum in KRB, pH 7.4.

Take anti-FLAG antibody (Abcam, ab1238): the Kd was 0.135 µg/mL in experiment [1] and 0.224 µg/mL in experiment [2].

In the case of anti-myc antibody (Abcam, #ab1326), the Kd was determined as 0.00773 µg/mL in experiment [3], 0.02 µg/mL in experiment [4] and 0.00798 µg/mL in experiment [5].

Source of the values: patent US20120108455A1.
